Reference: paper PMC4627417
Blank lines part the entries; values can stand above or below the substance they belong to.

How the values were obtained:
Test in all cases: biotin-peptide pull-down, MUDPIT mass spectrometry
[1] = target: SCAF8 (UniProt Q9UPN6)
[2] = target: SCAF4 (UniProt O95104)
[3] = target: RPRD2 (UniProt Q5VT52)
[4] = target: RPRD1B (UniProt Q9NQG5)
[5] = reference: pS2-CTD peptide, sites Y1
[6] = reference: unphosphorylated CTD peptide, sites S2
[7] = reference: unphosphorylated CTD peptide, sites Y1
[8] = reference: unphosphorylated CTD peptide, sites S5

other: number of peptides identified [1, 5]: lost; reference 17
other: number of peptides identified [2, 5]: weaker; reference 12
other: number of peptides identified [3, 5]: weaker; reference 63
other: number of peptides identified [4, 5]: weaker; reference 40
Substance: RNA polymerase II largest subunit (Rpb1) C-terminal repeated domain (CTD) (from UniProt P24928) pY1pS2-CTD peptide

other: number of peptides identified [1, 6]: gained; reference 0
other: number of peptides identified [2, 6]: gained; reference 0
other: number of peptides identified [3, 6]: gained; reference 0
other: number of peptides identified [4, 6]: gained; reference 0
Substance: RNA polymerase II largest subunit (Rpb1) C-terminal repeated domain (CTD) (from UniProt P24928) pS2-CTD peptide

other: number of peptides identified [1, 7]: none in both; reference 0
other: number of peptides identified [2, 7]: none in both; reference 0
other: number of peptides identified [3, 7]: none in both; reference 0
other: number of peptides identified [4, 7]: none in both; reference 0
Substance: RNA polymerase II largest subunit (Rpb1) C-terminal repeated domain (CTD) (from UniProt P24928) pY1-CTD peptide

other: number of peptides identified [1, 8]: none in both; reference 0
other: number of peptides identified [2, 8]: none in both; reference 0
other: number of peptides identified [3, 8]: none in both; reference 0
other: number of peptides identified [4, 8]: none in both; reference 0
Substance: RNA polymerase II largest subunit (Rpb1) C-terminal repeated domain (CTD) (from UniProt P24928) pS5-CTD peptide
